Where “and” joins values, the source holds several entries; their conditions need not be identical. Identical values can stand only once. Positions of bridges follow the written chain, without caps; N, C: chain ends. Residues, ends and D or L forms follow the SMILES beside them. *: point of attachment. DOTA = O=C(O)CN1CCN(CC(=O)O)CCN(CC(=O)*)CCN(CC(=O)O)CC1
Columns and labels:
tumours = settings: human, in vivo
Method: The radiolabelling procedure used was as follows.
(§1) Pre-therapeutic positron emission tomography/computed tomography (PET/CT) imaging was carried out 1 hour and 3 hours post injection with the imaging agent. […] Patient 1 was then administered with the therapeutic agent. […] single-photon emission computed tomography (SPECT) imaging was then carried out 1.5 hours, 17 hours, 41 hours, 65 hours and 141 hours post injection with the therapeutic agent.
(§2) Patient 2 was then administered with the therapeutic agent. […] SPECT imaging was then carried out 4.5 hours, 20 hours, 45 hours, 67 hours and 141 hours post injection with the therapeutic agent.
(§3) PET/CT imaging was performed using a Siemens Biograph mCT Flow PET/CT. SPECT imaging was performed using a Siemens Intevo SPECT/CT.

clinical = settings: for accumulation and retention in tumours (SPECT): up to 141 hours post injection
Method: A dosimetry study was carried out using Compound 3 to investigate the suitability of the compounds described herein for use in imaging and radiotherapy.
The radiolabelling procedure used was as follows. Compound 3 was dissolved in ultrapure water (2 μg/μl) and 1.5 mL of 0.4 M sodium acetate buffer at pH 4.8 (8 mg/mL). Gentisic acid was added and the mixture was transferred to a ^177Lu V-vial. The vial was heated for 25 minutes at 95° C.
as §1, §2, §3

cMet receptor = cMet receptor (Homo sapiens, UniProt P08581); experiment: Competition binding assay by fluorescence polarisation (FP); settings: mean; competition FP vs Cy5-labelled probe 20 nM, cMet receptor 50 nM, PBS pH 7.4 with 0.01% Tween 20
Method: The half maximal inhibitory concentration (IC50) and dissociation constant (Kd) values were determined by competition fluorescence polarisation (FP) assay for the binding of cMet binding cyclic peptide (unlabelled), cMet-DOTA (Compound 3) and cMet-DOTAGA (Compound 4) to cMet receptor.
The principle of the fluorescence polarisation method can briefly be described as follows:
Monochromatic light passes through a […] polarizing filter and excites fluorescent molecules in the sample. Only those molecules that are oriented properly in the vertically polarized plane adsorb light, become excited, and subsequently emit light. The emitted light is measured in both horizontal and vertical planes. The anisotropy value (A), is the ratio between the light intensities following the equation:
A=(Intensity with horizontal polarizer—Intensity with vertical polarizer)/(Intensity with horizontal polarizer+2* Intensity with vertical polarizer).
The fluorescence anisotropy measurements were performed in a 96-well flat bottom plate using a Molecular Devices M5 multi-mode plate reader.
The assay buffer used was phosphate-buffered saline (PBS), pH 7.4 with 0.01% Tween 20. […]
IC50 values were determined by data fitting with the following equation using KaleidaGraph v4.03: […]
Kd values were determined by data fitting with the following equation using KaleidaGraph v4.03: […]

[1] = patient 1, 835 MBq, tumours (individual clusters)
[2] = patient 2, 959 MBq, tumours (individual VOIs)

Chain of cMet receptor (P08581 25-932 limits assumed): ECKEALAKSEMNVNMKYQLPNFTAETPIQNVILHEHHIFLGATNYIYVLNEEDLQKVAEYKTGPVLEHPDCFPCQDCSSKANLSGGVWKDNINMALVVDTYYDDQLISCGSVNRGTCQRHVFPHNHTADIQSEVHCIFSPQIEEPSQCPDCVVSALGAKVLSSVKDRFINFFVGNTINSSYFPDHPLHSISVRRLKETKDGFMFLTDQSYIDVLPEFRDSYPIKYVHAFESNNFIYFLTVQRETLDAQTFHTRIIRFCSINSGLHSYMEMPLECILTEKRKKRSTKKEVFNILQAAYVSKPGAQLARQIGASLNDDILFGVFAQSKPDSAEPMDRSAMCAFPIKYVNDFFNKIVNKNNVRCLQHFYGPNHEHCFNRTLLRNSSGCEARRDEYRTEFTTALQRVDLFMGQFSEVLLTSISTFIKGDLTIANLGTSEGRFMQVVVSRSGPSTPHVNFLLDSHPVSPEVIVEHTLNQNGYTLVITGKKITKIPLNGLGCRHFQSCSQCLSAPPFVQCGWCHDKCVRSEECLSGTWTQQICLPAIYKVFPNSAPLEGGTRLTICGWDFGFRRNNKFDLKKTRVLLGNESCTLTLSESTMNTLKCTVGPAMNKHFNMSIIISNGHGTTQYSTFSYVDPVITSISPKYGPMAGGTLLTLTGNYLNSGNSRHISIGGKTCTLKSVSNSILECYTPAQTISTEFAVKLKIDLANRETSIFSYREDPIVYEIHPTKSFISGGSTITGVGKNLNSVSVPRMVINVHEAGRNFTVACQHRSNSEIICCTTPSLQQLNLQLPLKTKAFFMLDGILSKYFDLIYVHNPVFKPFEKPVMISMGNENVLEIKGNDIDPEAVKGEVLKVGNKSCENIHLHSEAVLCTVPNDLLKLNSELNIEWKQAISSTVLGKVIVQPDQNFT

CC(=O)N[C@@H](C)C(=O)NCC(=O)N[C@@H](CO)C(=O)N[C@H]1CSSC[C@@H](C(=O)N[C@@H](Cc2ccc(O)cc2)C(=O)N[C@@H](CCC(=O)O)C(=O)N[C@H](C(=O)N[C@@H](CCC(=O)O)C(=O)NCC(=O)N[C@H](C(=O)NCC(=O)NCC(=O)NCC(=O)N[C@@H](CCCCNC(=O)CN2CCN(CC(=O)O)CCN(CC(=O)O)CCN(CC(=O)O)CC2)C(N)=O)[C@@H](C)O)[C@@H](C)O)NC(=O)[C@H](Cc2c[nH]c3ccccc23)NC(=O)[C@@H]2CSSC[C@H](NC(=O)[C@H](Cc3ccc(O)cc3)NC1=O)C(=O)N[C@@H](CO)C(=O)NCC(=O)N1CCC[C@H]1C(=O)N1CCC[C@H]1C(=O)N[C@@H](CCCNC(=N)N)C(=O)N[C@@H](Cc1ccccc1)C(=O)N[C@@H](CCC(=O)O)C(=O)N2 [^68Ga-Compound 3, metal not drawn] (Ac-AGSCYCSGPPRFECWCYETEGTGGGK(DOTA)-NH2; disulfide 4-16, 6-14)
accumulation in tumours (PET/CT) (tumours): accumulation

CC(=O)N[C@@H](C)C(=O)NCC(=O)N[C@@H](CO)C(=O)N[C@H]1CSSC[C@@H](C(=O)N[C@@H](Cc2ccc(O)cc2)C(=O)N[C@@H](CCC(=O)O)C(=O)N[C@H](C(=O)N[C@@H](CCC(=O)O)C(=O)NCC(=O)N[C@H](C(=O)NCC(=O)NCC(=O)NCC(=O)N[C@@H](CCCCNC(=O)CN2CCN(CC(=O)O)CCN(CC(=O)O)CCN(CC(=O)O)CC2)C(N)=O)[C@@H](C)O)[C@@H](C)O)NC(=O)[C@H](Cc2c[nH]c3ccccc23)NC(=O)[C@@H]2CSSC[C@H](NC(=O)[C@H](Cc3ccc(O)cc3)NC1=O)C(=O)N[C@@H](CO)C(=O)NCC(=O)N1CCC[C@H]1C(=O)N1CCC[C@H]1C(=O)N[C@@H](CCCNC(=N)N)C(=O)N[C@@H](Cc1ccccc1)C(=O)N[C@@H](CCC(=O)O)C(=O)N2 [^177Lu-Compound 3, metal not drawn] (Ac-AGSCYCSGPPRFECWCYETEGTGGGK(DOTA)-NH2; disulfide 4-16, 6-14)
half-life (clinical; human, kidney (left), Half-life, patient 2, 959 MBq): 37 h | half-life (clinical; human, kidney (left), Halflife, patient 1, 835 MBq): 21 h | half-life (clinical; human, kidney (right), Half-life, patient 2, 959 MBq): 40 h | half-life (clinical; human, kidney (right), Halflife, patient 1, 835 MBq): 21 h | half-life (clinical; human, liver, Half-life, patient 2, 959 MBq): 77 h | half-life (clinical; human, liver, Halflife, patient 1, 835 MBq): 73 h | half-life (clinical; human, spleen, Half-life, patient 2, 959 MBq): 58 h | half-life (clinical; human, spleen, Halflife, patient 1, 835 MBq): 39 h | half-life (clinical; human, tumours (individual VOIs), Half-life, patient 2, 959 MBq): 28 h | half-life (clinical; human, tumours (individual clusters), Halflife, patient 1, 835 MBq): 42 h | Dose (clinical; patient 1, 835 MBq, kidney (left)): 1.04 Gy | Dose (clinical; patient 1, 835 MBq, kidney (right)): 1.02 Gy | Dose (clinical; [1]): 0.4 Gy and 0.43 Gy and 0.36 Gy | Halflife (clinical; [1]): 48 h and 32 h and 59 h | accumulation and retention in tumours (SPECT) (clinical; patient 1, 835 MBq): accumulation and retention | Dose (clinical; patient 2, 959 MBq, kidney (left), VOI 2466): 1.87 Gy | Dose (clinical; patient 2, 959 MBq, kidney (left), VOI K-l-iso (Isocont.)): 1.73 Gy | Dose (clinical; patient 2, 959 MBq, kidney (right), VOI 2548): 1.06 Gy | Dose (clinical; [2]): 0.08 Gy and 0.05 Gy and 0.04 Gy | half-life (clinical; [2]): 27 h | accumulation and retention in tumours (SPECT) (clinical; patient 2, 959 MBq): accumulation and retention

CC(=O)N[C@@H](C)C(=O)NCC(=O)N[C@@H](CO)C(=O)N[C@H]1CSSC[C@@H](C(=O)N[C@@H](Cc2ccc(O)cc2)C(=O)N[C@@H](CCC(=O)O)C(=O)N[C@H](C(=O)N[C@@H](CCC(=O)O)C(=O)NCC(=O)N[C@H](C(=O)NCC(=O)NCC(=O)NCC(=O)N[C@@H](CCCCN)C(N)=O)[C@@H](C)O)[C@@H](C)O)NC(=O)[C@H](Cc2c[nH]c3ccccc23)NC(=O)[C@@H]2CSSC[C@H](NC(=O)[C@H](Cc3ccc(O)cc3)NC1=O)C(=O)N[C@@H](CO)C(=O)NCC(=O)N1CCC[C@H]1C(=O)N1CCC[C@H]1C(=O)N[C@@H](CCCNC(=N)N)C(=O)N[C@@H](Cc1ccccc1)C(=O)N[C@@H](CCC(=O)O)C(=O)N2 [cMet peptide (unlabelled)] (HELM PEPTIDE1{[ac].A.G.S.C.Y.C.S.G.P.P.R.F.E.C.W.C.Y.E.T.E.G.T.G.G.G.K.[am]}$PEPTIDE1,PEPTIDE1,5:R3-17:R3|PEPTIDE1,PEPTIDE1,7:R3-15:R3$$$V2.0)
IC50 (cMet receptor): 0.32 ± 0.037 µM | Kd (cMet receptor): 0.0069 ± 0.0008 µM

Reference: patent US20220273830A1, “COMPOUNDS AND METHODS OF USE” (EDINBURGH MOLECULAR IMAGING LIMITED, priority 2019, published 2022)
